Test results taken from publication PMC1874666 (Nucleic Acids Research, 2007).

Target: the molecule itself
Test: AUC

B1: Helicobacter pylori neutrophil-activating protein (HP-NAP) (natural protein, UniProt P43313 1-144, looked up)
chain: MKTFEILKHLQADAIVLFMKVHNFHWNVKGTDFFNVHKATEEIYEEFADMFDDLAERIVQLGHHPLVTLSEAIKLTRVKEETKTSFHSKDIFKEILEDYKYLEKEFKELSNTAEKEGDKVTVTYADDQLAKLQKSIWMLQAHLA
- stoichiometry N: 12
